Assays:
[1] = molecular target: T1, ASCC3 helicase region (ASCC3^HR, residues 401-2202) (human, UniProt Q8N3C0 401-2202); assay: cell-based or functional assay
[2] = molecular target: T1, ASCC3 helicase region (ASCC3^HR, …); assay: SEC; analytical SEC, Superdex 200 3.2/300; 20 mM HEPES-NaOH pH 7.5, 250 mM NaCl, 5% glycerol, 1 mM DTT; 100 pmol ASCC3^HR mixed with other proteins in two to tenfold molar excess in 80 µl, 30 min on ice; fractions by SDS-PAGE; settings: both partners purified
TRIP4 = molecular target: T2, TRIP4 (UniProt Q15650 1-581); assay: MST; no ATP; Hill fit EC50; MST: 20 mM HEPES-NaOH pH 7.5, 300 mM NaCl, 5% glycerol, 1 mM DTT, room temperature, 50 nM final Cy5-T48; UV cross-linking: 50 mM HEPES-NaOH pH 7.5, 80 mM NaCl; settings: protein: recombinant; tags: N-terminal His6, TEV-cleaved; label: 5'-Cy5; single strand
T2 sequence: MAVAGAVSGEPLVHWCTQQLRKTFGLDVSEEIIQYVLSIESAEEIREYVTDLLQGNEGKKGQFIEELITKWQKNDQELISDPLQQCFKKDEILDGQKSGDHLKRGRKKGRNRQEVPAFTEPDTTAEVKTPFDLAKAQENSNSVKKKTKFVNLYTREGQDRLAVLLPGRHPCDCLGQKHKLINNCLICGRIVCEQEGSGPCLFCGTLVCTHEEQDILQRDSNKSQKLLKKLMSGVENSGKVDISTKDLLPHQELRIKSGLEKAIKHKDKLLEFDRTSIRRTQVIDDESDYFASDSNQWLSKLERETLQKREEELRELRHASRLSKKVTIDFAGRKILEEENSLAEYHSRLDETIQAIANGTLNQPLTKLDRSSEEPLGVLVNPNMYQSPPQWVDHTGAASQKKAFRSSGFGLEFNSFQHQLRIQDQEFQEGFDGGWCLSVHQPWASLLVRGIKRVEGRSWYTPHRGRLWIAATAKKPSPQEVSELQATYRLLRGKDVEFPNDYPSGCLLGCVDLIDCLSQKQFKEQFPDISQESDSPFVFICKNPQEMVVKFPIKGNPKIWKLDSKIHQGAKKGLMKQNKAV

ASCC3HR = ASCC3HR (human, UniProt Q8N3C0 401-2202); assay: as above; settings: protein: recombinant; tags: N-terminal His10, TEV-cleaved; label: 5'-Cy5; single strand
ASCC3HR;TRIP4 1-230 = ASCC3HR;TRIP4 1-230 (human;human?, UniProt Q8N3C0;Q15650 401-2202;1-230, |); assay: as above; settings: protein: recombinant;recombinant; tags: N-terminal His10, TEV-cleaved;N-terminal His6, TEV-cleaved; copies: 1;1; label: 5'-Cy5; single strand
ASCC3HR;TRIP4 = ASCC3HR;TRIP4 (human;human?, UniProt Q8N3C0;Q15650 401-2202;1-581, |); assay: as above; settings: protein: recombinant;recombinant; tags: N-terminal His10, TEV-cleaved;N-terminal His6, TEV-cleaved; copies: 1;1; label: 5'-Cy5; single strand
[3] = molecular target: T1, ASCC3 helicase region (ASCC3^HR, …); assay: SEC; analytical SEC for competitive binding, Superdex 200 3.2/300; 120 pmol ASCC3^HR with 360 pmol TRIP4 and/or ALKBH3 in 100 µl, 30 min on ice; fractions by SDS-PAGE, Coomassie; settings: both partners purified

T1 sequence (Q8N3C0 401-2202): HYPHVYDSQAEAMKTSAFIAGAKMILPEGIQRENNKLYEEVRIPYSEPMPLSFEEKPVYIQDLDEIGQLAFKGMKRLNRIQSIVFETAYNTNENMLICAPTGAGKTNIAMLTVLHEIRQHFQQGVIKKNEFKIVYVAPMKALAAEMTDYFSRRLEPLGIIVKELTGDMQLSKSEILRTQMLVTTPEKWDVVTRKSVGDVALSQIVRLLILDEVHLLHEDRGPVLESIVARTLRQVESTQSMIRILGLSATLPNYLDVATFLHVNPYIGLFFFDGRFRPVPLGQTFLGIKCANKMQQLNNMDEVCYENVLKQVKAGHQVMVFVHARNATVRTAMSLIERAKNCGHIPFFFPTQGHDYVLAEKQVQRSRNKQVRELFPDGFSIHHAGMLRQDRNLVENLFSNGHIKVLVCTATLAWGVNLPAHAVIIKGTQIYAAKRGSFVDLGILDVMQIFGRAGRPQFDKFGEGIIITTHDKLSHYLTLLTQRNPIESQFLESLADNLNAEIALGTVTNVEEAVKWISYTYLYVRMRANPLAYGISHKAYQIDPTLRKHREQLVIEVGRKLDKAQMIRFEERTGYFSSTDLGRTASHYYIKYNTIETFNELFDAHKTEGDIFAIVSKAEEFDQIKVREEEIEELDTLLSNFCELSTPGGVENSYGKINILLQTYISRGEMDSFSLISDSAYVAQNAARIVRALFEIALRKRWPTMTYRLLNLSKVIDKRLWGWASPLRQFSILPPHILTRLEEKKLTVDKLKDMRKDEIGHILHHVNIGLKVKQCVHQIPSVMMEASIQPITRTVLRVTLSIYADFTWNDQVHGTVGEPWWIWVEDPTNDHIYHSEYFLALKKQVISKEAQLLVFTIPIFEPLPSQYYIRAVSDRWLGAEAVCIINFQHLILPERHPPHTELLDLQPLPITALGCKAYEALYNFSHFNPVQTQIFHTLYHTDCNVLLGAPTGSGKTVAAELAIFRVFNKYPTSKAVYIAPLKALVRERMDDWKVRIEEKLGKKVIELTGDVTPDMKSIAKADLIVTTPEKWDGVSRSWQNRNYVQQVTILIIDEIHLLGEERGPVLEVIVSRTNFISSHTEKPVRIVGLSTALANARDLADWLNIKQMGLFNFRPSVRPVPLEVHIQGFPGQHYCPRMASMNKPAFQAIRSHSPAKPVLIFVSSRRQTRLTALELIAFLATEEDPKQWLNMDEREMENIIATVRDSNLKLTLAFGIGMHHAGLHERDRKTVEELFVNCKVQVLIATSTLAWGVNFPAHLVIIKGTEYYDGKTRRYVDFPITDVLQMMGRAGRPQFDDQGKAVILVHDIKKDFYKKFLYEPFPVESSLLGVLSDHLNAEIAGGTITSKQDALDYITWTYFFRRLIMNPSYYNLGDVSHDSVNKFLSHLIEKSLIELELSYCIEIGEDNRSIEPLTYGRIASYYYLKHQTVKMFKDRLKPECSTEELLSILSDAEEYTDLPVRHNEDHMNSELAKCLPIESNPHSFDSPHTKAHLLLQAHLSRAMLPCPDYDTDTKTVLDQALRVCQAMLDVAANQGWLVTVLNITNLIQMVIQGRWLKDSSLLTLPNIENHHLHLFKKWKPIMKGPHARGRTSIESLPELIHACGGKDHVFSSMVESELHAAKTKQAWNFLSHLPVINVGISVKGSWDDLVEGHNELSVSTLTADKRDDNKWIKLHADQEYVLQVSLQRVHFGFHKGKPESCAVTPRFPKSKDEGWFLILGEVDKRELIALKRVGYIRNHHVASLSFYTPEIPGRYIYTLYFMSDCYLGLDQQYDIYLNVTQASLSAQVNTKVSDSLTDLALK
ASCC3HR, sequence (Q8N3C0 401-2202): as above
ASCC3HR;TRIP4 1-230, sequence (Q8N3C0 401-2202, one chain of several): as the sequence (Q8N3C0 401-2202) above
ASCC3HR;TRIP4, sequence (Q8N3C0 401-2202, one chain of several): as the sequence (Q8N3C0 401-2202) above

B1: TRIP4, full length, co-produced with ASCC3^HR in insect cells (natural protein, human, UniProt Q15650 1-581, looked up)
chain: T2 sequence
amplitude-weighted DNA unwinding rate constant (kuaw) of ASCC3^HR with TRIP4, stopped-flow fluorescence, no trap (ASCC3^HR alone 0.024 s^-1; stimulated 2.3-fold) [1]: 0.054 s⁻¹

B2: TRIP4^152-581 (domain or fragment, human, UniProt Q15650 152-581, looked up)
chain: LYTREGQDRLAVLLPGRHPCDCLGQKHKLINNCLICGRIVCEQEGSGPCLFCGTLVCTHEEQDILQRDSNKSQKLLKKLMSGVENSGKVDISTKDLLPHQELRIKSGLEKAIKHKDKLLEFDRTSIRRTQVIDDESDYFASDSNQWLSKLERETLQKREEELRELRHASRLSKKVTIDFAGRKILEEENSLAEYHSRLDETIQAIANGTLNQPLTKLDRSSEEPLGVLVNPNMYQSPPQWVDHTGAASQKKAFRSSGFGLEFNSFQHQLRIQDQEFQEGFDGGWCLSVHQPWASLLVRGIKRVEGRSWYTPHRGRLWIAATAKKPSPQEVSELQATYRLLRGKDVEFPNDYPSGCLLGCVDLIDCLSQKQFKEQFPDISQESDSPFVFICKNPQEMVVKFPIKGNPKIWKLDSKIHQGAKKGLMKQNKAV
notes: source: E. coli BL21 (DE3), purified (Ni-NTA, TEV, heparin, SEC); not shown: His6, N-terminal, cleaved
binding result [2]: binds

TTTTTTTTTTTTTTTTTTTTTTTTTTTTTTTTTTTTTTTTTTTTTTTT (ssDNA) [T48 (Cy5)]
apparent K (half saturation) (TRIP4): 903 ± 24 nM | apparent K (half saturation) (ASCC3HR): 551 ± 194 nM | apparent K (half saturation) (ASCC3HR;TRIP4 1-230): 468 ± 63 nM | apparent K (half saturation) (ASCC3HR;TRIP4): 53 ± 3 nM

B3: TRIP4^152-230 (domain or fragment, human, UniProt Q15650 152-230, looked up)
chain: LYTREGQDRLAVLLPGRHPCDCLGQKHKLINNCLICGRIVCEQEGSGPCLFCGTLVCTHEEQDILQRDSNKSQKLLKKL
notes: TRIP4, human, residues 152-230 (ZnF domain); also called ZnF domain alone; source: E. coli BL21 (DE3), purified (Ni-NTA, TEV, SEC); not shown: His6, N-terminal, cleaved
binding result [2]: binds

B4: ALKBH3 (alpha-ketoglutarate/iron-dependent dioxygenase, DNA/RNA dealkylase), full length (enzyme, human, UniProt Q96Q83 1-286, looked up)
chain: MEEKRRRARVQGAWAAPVKSQAIAQPATTAKSHLHQKPGQTWKNKEHHLSDREFVFKEPQQVVRRAPEPRVIDREGVYEISLSPTGVSRVCLYPGFVDVKEADWILEQLCQDVPWKQRTGIREDITYQQPRLTAWYGELPYTYSRITMEPNPHWHPVLRTLKNRIEENTGHTFNSLLCNLYRNEKDSVDWHSDDEPSLGRCPIIASLSFGATRTFEMRKKPPPEENGDYTYVERVKIPLDHGTLLIMEGATQADWQHRVPKEYHSREPRVNLTFRTVYPDPRGAPW
notes: ALKBH3, human, full length, amplified from a cDNA library of human HeLa cells, pETM-11; source: E. coli C2566, purified (Ni-NTA, TEV, heparin, SEC); not shown: His6, N-terminal, cleaved
binding result [3]: binds
